Ends that are not written are not given here.
T1: FRS2_PTB (Homo sapiens, UniProt Q8WU20)
T1 construct: FRS2-PTB 11-140aa; 6xHis; made in house; host or cells: E. coli BL21 (DE3)
T1 sequence (Q8WU20 11-140): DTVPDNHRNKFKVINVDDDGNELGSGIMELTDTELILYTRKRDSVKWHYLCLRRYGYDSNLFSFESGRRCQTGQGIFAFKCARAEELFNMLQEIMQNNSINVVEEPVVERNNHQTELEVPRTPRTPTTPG

T2: GB1-FRS2-PTB (Homo sapiens, UniProt Q8WU20)
T2 construct: FRS2-PTB 11-140aa; 6xHis (N); made in house; host or cells: E. coli BL21 (DE3)
T2 sequence (Q8WU20 11-140): T1 sequence (Q8WU20 11-140)

T3: GB1-FRS2_PTB (human, UniProt Q8WU20 15-135, 2nd Generation BLUE-NHS dye (in the MST only))
T3 construct: Fibroblast growth factor receptor substrate 2 (FRS2), human, PTB domain, residues 15 to 135; Vector pEM3BT2; also called GB1-fused PTB domain; source: E. coli BL21 (DE3), purified (Ni-NTA); not shown: His6, N-terminal, kept
T3 sequence (looked up): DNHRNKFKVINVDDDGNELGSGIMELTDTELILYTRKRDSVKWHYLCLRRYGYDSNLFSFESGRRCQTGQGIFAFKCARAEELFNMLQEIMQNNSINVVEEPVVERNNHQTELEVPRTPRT

T4: FRS2_PTB (PTB domain of human FRS2) (human, UniProt Q8WU20 15-135)
T4 construct: Fibroblast growth factor receptor substrate 2 (FRS2), human, PTB domain, residues 15 to 135 as the methods state for the PTB domain constructs; The limits 15-135 are stated in the methods sentence that describes the GB1 fusions; also called FRS2-PTB domain; PTB domain of FRS2; source: E. coli BL21 (DE3), purified (Ni-NTA)
T4 sequence (looked up): T3 sequence (looked up)


Legend:
[1] = molecular target: T1, FRS2_PTB; assay: nano differential scanning fluorimetry (nanoDSF); type: binding; conditions: 500 μM ligand
Procedure: (§1) Assay establishment and pilot nanoDSF experiments were performed with a Tycho® system. Each experiment was performed by mixing the protein and ligand of interest at a 1:1 ratio and subsequent incubation for 15–30 min at room temperature. Controls of protein alone and ligand alone in identical buffer compositions as for the complex were measured accordingly. The temperature gradient ranged from 35 to 95 °C, and the heating rate was 30 °C/min. Inflection temperatures TI were calculated from the first derivative of the spectra obtained at the ratio of the signals at 350 nm to those at 330 nm. ΔTI of a complex was calculated as following: ΔTI,complex = TI,complex – TI,protein.
The in-built software version 1.1.5.668 (NanoTemper Technologies, Munich, Germany) and Microsoft Office Excel 365 (Microsoft Corp., Seattle, USA) was used for data analysis. Data was plotted with GraphPad Prism vers. 8.3.0 (GraphPad Software, San Diego, USA).
Purified FRS2_PTB or GB1_FRS2_PTB protein tagged with 6 × Histidine residues and the B1 immunoglobulin binding domain of the streptococcal protein G (GB1) were diluted in the protein buffer (100 mM sodium phosphate, 50 mM NaCl, 0.5 mM EDTA, 50 mM arginine, 1 mM TCEP, pH 7.0) to 30 μM, GB-1 to 40 μM. FGFR_PEP, compounds or paracetamol (PARA) as negative control were dissolved at 1 mM in the protein buffer supplemented with 10% DMSO. Compound and protein were mixed at 1:1 volume ratio yielding a final concentration of 15 μM and 20 μM for FRS2_PTB/GB1_FRS2_PTB and GB1, respectively, as well as 500 μM for FGFR_PEP or compounds. The mixture was incubated for 15 min. Each compound was measured in triplicates. Protein controls were measured in six replicates in the beginning. The quality of the screen was assessed by the Z-factor. nanoDSF validation studies were performed on a Prometheus® system in high sensitivity capillaries. Samples were heated with 1 °C/min from 20 to 95 °C. Each compound was measured in triplicates. GB1-FRS2_PTB and GB1 were diluted in the protein buffer (100 mM sodium phosphate, 50 mM NaCl, 0.5 mM EDTA, 50 mM arginine, 1 mM TCEP, pH 7.0) to 30 μM. Compounds 3.3, 3.4, 3.18 as well as the 3.18 analogues were dissolved in 100% DMSO at 50 or 100 mM and further diluted to 1 mM with a final DMSO-concentration of 100%. FGFR_PEP was dissolved at 1 mM in the protein buffer supplemented with 10% DMSO. Compound and protein were mixed at 1:1 volume ratio yielding final concentrations of 15 μM protein and 500 μM for the compounds. FGFR_PEP was measured against both GB1-FRS2_PTB and GB1, all other compounds only against GB1-FRS2_PTB. The mixture was incubated for 15 min before measurement. The data was analyzed for both the ratio of signals at 330 and 350 nm and at 350 nm alone. […]

[2] = molecular target: T2, GB1-FRS2-PTB; assay: nanoDSF with GB1-fused PTB domain; type: binding
Procedure: as §1, with “TI,protein. […]” for “TI,protein.”
Purified FRS2_PTB or GB1_FRS2_PTB protein tagged with 6 × Histidine residues and the B1 immunoglobulin binding domain of the streptococcal protein G (GB1) were diluted in the protein buffer (100 mM sodium phosphate, 50 mM NaCl, 0.5 mM EDTA, 50 mM arginine, 1 mM TCEP, pH 7.0) to 30 μM, GB-1 to 40 μM. […] Each compound was measured in triplicates. Protein controls were measured in six replicates in the beginning. The quality of the screen was assessed by the Z-factor. nanoDSF validation studies were performed on a Prometheus® system in high sensitivity capillaries. […] Each compound was measured in triplicates. […] FGFR_PEP was measured against both GB1-FRS2_PTB and GB1, all other compounds only against GB1-FRS2_PTB. […]

[3] = molecular target: T3, GB1-FRS2_PTB; assay: MST; GB1-FRS2_PTB labelled with BLUE-NHS dye at 25 nM; FGFR_PEP in 1:1 serial dilution from 1 mM to 61.04 nM; 25 C; 100 mM sodium phosphate, 50 mM NaCl, 0.5 mM EDTA, 50 mM arginine, 1 mM TCEP, pH 7.0, with and without DMSO; MST trace analysis; conditions: both partners purified
[4] = molecular target: T4, FRS2_PTB (PTB domain of human FRS2); assay: nanoDSF (thermal shift); 15 uM protein mixed with 500 uM FGFR_PEP, incubated 15 min; 100 mM sodium phosphate, 50 mM NaCl, 0.5 mM EDTA, 50 mM arginine, 1 mM TCEP, pH 7.0, with DMSO; shift of the inflection or melting temperature against protein alone; conditions: both partners purified
[5] = molecular target: T3, GB1-FRS2_PTB; assay: as above; conditions: both partners purified

nanoDSF shift of the inflection point of the melting curve (ΔTm) [1] [°C]	nanoDSF shift in the melting temperature [2] [°C]	Kd [3] [nM]	Molecule	shift of the inflection point of the melting curve (nanoDSF) [4] [°C]	shift in the melting temperature (nanoDSF) [5] [°C]
19 ± 0.1	10.5 ± 0.1	–	HSQMAVHKLAKSIPLRRQVTVS [FGFR peptide, reference compound]	–	–
–	–	1000 ± 200	HSQMAVHKLAKSIPLRRQVTVS (also called FGFR1 peptide) [FGFR peptide (FGFR_PEP)]	19 ± 0.1	10.5 ± 0.1
